Test: soluble on expression in E. coli; label from the status in PepcDB or PDB records

Row | Sequence | soluble on expression in E. coli
1 | MGSDKIHHHHHHMKIMVITKNILSETAFQNRLQHLDHQVFCTTCLIGEIKESHLFYRKFDAIILSETIPRKEQYLYLKELARVKTPLFLRSEDIPTSEELSISYQYGILNWLRLDATLDTLRENLLLAELNKPIQREDEKLDVEGIKLTAAERALLAVLYSTPKEHLPMERLCKLIYDTEETANNRKKMTKQLTKLNKKIQVGGFKKQGIQNTRYKGYKLHPQLLPYIGELFT | not soluble
2 | MVLPALPAPPVCDSQNECVGWLGVAYSAVVDVIRAAAHEGVYIEPEARGRLDALREWIYYNYYTERAKRRDRRRRSVCHARTWFCFRKYDYVRRSIWHDTTTNTISVVSAHSVQ | soluble
3 | MSLNNIQIRNYQPGDFQQLCAIFIRAVTMTASQHYSPQQISAWAQIDESRWKEKLAKSQVWVAIINAQPVGFISRIEHYIDMLFVDPEYTRRGVASALLKPLIKSESELTVDASITAKPFFERYGFQTVKQQRVECRGAWFTNFYMRYKPQHEGGSHHHHHH | soluble
4 | EPTNAPAALSRRFSVAPMMDWTDRHCRFFLRQLSRHTLLYTEMVTTGALLHGDRQRFLRYDECEHPLALQLGGSVPAELAACARLAEEAGYDEVNLNVGCPSDRVQHNMIGACLMGHPALVADCVKAMLDAVEIAVTVKHRIGINGRDSYAELCDFVGQVREAGCRSFTVHARIAILEGLSPKENREVPPLRYEVAAQLKKDFPDLEIVLNGGIKTLEACREHLQTFDGVMLGREAYHNPYLLAAVDSQLFGSEAPPLSRSEALLRLRPYIERHQAEGGAMHHVTRHILGLAQGFPGSRRFRQLLSVDVHKAADPLRVFDQA | not soluble
5 | MAAASAVSVLLVAAERNRWHRLPSLLLPPRTWVWRQRTMKYTTATGRNITKVLIANRGEIACRVMRTAKKLGVQTVAVYSEADRNSMHVDMADEAYSIGPAPSQQSYLSMEKIIQVAKTSAAQAIHPGCGFLSENMEFAELCKQEGIIFIGPPPSAIRDMGIKSTSKSIMAAAGVPVVEGYHGEDQSDQCLKEHARRIGYPVMIKAVRGGGGKGMRIVRSEQEFQEQLESAWREAKKSFNDDAMLIEKFVDTPRHVEVQVFGDHHGNAVYLFERDCSVQRRHQKIIEEAPAPGIKSEVRKKLGEAAVRAAKAVNYVGAGTVEFIMDSKHNFCFMEMNTRLQVEHPVTEMITGTDLVEWQLRIAAGEKIPLSQEEITLQGHAFEARIYAEDPSNNFMPVAGPLVHLSTPRADPSTRIETGVRQGDEVSVHYDPMIAKLVVWAADRQAALTKLRYSLRQYNIVGLPTNIDFLLNLSGHPEFEAGNVHTDFIPQHHKQLLLSRKAAAKESLCQAALGLILKEKAMTDTFTLQAHDQFSPFSSSSGRRLNISYTRNMTLKDGKNNVAIAVTYNHDGSYSMQIEDKTFQVLGNLYSEGDCTYLKCSVNGVASKAKLIILENTIYLFSKEGSIEIDIPVPKYLSSVSSQETQGGPLAPMTGTIEKVFVKAGDKVKAGDSLMVMIAMKMEHTIKSPKDGTVKKVFYREGAQANRHTPLVEFEEEESDKRESE | soluble
6 | MSSAAADESDAVLENLIAKEILPQTGNWEGTEEFLNRIVQVLLKYIKDQNDRDQKILEFHHPDKMQMLMDLSIPEKPESLLKLVKSCEDVLRLGVRTGHPRFFNQISCGLDLVSMAGEWLTATANTNMFTYEIAPVFILMEKSVMARMWEAVGWDPEKADGIFAPGGAIANLYAMNAARHQLWPRSKHLGMKDIPTLCCFTSEDSHYSIKSASAVLGIGADYCFNIPTDKNGKMIPEALEAKIIECKKEGLTPFFACCTAGSTVYGAFDPLERVANICERHKLWFHVDAAWGGGMLLSPEHRYKLAGIERANSVTWNPHKLMGALLQCSACLFRQDGLLFQCNQMSADYLFQQDKPYDVSFDTGDKAIQCGRHNDVFKLWLMWKSKGMEGYRQQINKLMDLANYFTRRIKETEGFELIIENPEFLNICFWYVPSKIRNLEPAEMRARLEKIAPKIKAGMMQRGTTMVGYQPDKQRPNFFRMIISNQAITREDLDFLIKEIVDIGESLE | not soluble
7 | SLSERVRTYWIIIELKHKAREKPYDSKSLRTALQKEITTRYQLDPKFITSILYENNVITIDLVQNSSQKTQNDVDIADVAYYFEKDVKGESLFHSKKMDLTVNGEQLDLDPGQTLIYYVDEKAPEFSEG | soluble
8 | MKHLFTRIFLFHLLLIGTVQVTAQNKKSGNPILPGFHADPEVLYSHQTKRYYIYPTSDGFPGWGGSYFKVFSSKNLKTWKEETVILEMGKNVSWANGNAWAPCIEEKKIDGKYKYFFYYSANPTTNKGKQIGVAVADSPTGPFTDLGKPIITSSPTGRGQQIDVDVFTDPVSGKSYLYWGNGYMAGAELNDDMLSIKEETTVVLTPKGGTLQTYAYREAPYVIYRKGIYYFFWSVDDTGSPNYHVVYGTAQSPLGPIEVAKEPIVLIQNPKEEIYGPAHNSILQVPGKDKWYIVYHRINKNHLNDGPGWHREVCIDRMEFNPDGTIKQVIPTP | not soluble
9 | MKVAIASDHGGVHIRNEIKELMDELQIEYIDMGCDCGSGSVDYPDYAFPVAEKVVSGEVDRGILICGTGIGMSISANKVKGIRCALAHDTFSAKATREHNDTNILAMGERVIGPGLAREIAKIWLTTEFTGGRHQTRIGKISDYEEKNL | soluble
10 | MSLRKIKIKEIVCIIGLLGTLTAHSQNTVWQIGNKDKSAKEFKFYKNDYRNYINDVYLYEVGRNHSADFPYFLPGPSDAWAGGISGQAVIGFSLAEAPSPTTQIQLRLLFAETHPSSPPRLEVRLNSFEKSIQTPKGTNPEYLDTKETTSKELSVTLDIPADEFRAGNNTLTIRNISGSWVAFDQIKLTSDSPLQTNNLTTKASLVSSAFSPVLVVGKKKELRQPVKIKAVNWHHKKRPVELQVGNFPPERYVLSPGINNIETSIPEVTAPCELPIILKEQGKTVSKINEKATPVKKWTVYLVQHTHTDIGYTKPQTEILSEHLRYIDYAIEYCEQTKDYTNDAKFRWTCESAWAVDEYLKNRPEEQVNKLKKYIAEGQIEVASMYFNMSEIVDENSFKTFLQPVKEFRKHGIPSALAMQNDVNGIAWCLADYLPDLGIKYLWMGEHHYKSQVPFNMPTVFQWESPSGKPILTYRADHYNTGNFWGIEQGDIQKTEPKLLHYLSELERKHYPFDAVGVQYSGYFTDNSPPSIIECKLIREWNEKYAYPKLRSATASEFMDYVTERYGDKIPAYRAAYPDWWTDGFGSAARETAASRKTHSDMTAVEGLLSMAVLKDKCLPQATHQQIEHIHESLLFYDEHTFGASESVSDPLCENSQVQWGEKSAYAWEAVKRTQMLYETSVGLLQGDLRRGKNPTLTIFNTLNWKRSEMLTVYIDFEVIPRNQFFEITDFQGHSLKVQPIRYRREGCYYAIFAEDIPPMGYKTFEIVFKQPSTDTGTITINNASIENHFYKLQLNPDKGTIQSLYDKELNCELVDSSSPWELGAFIYEKLGNRDQLAQYRLDDYNRTGLSECRIIDSSNGPIYQRILLQGKSPGTDEAFGVNLEIKLYHDTKRIELEYAIKRLPETDPSGIYVAFPFQLPEGKLAFDVQGGTVISGKNQLEGTSTDWNTVQNFVSVQNEGHHHHHH | not soluble
11 | MGSDKIHHHHHHMRFRERRFYMFYGKLQGENGDRFRAALQTMQELFGSVYASDNLIGLQRAGGFREDKKFVETLRRNAQTQQELSIAWRLHTLLWAAQNVMHLPGDFVECGVWKGFCFAFLTDYLDFAKSDKTLYLYDTYQGIPEAMNSEKRSNQVYEKDIAQDPNAILKVVQQRFANVPNARIVQGMVPDSFAEACPERIALLHIDMNSAASEIAALEALFDKVVPGGMIVFDDYGWTGYAAQRHAENAFMAARGHTVLEIPTGQGLVIKH | not soluble
12 | MCTVSLCVSLCLWMHNETVQVAMALEFKDKWLEQFYEDDKRHRLIPSSIENALFRKLEILDAAQAESDLRIPPGNRFEHLEGNLKGWCSIRVNKQYRLIFQWVDGVALNTYLDPHKY | not soluble
13 | MGSDKIHHHHHHMLDKKTDILLAARKLFSEKDFTSVSMQAIAEECKMSKASIYKLFQSKEDLLLELLSFNQKQMVAAASRLQENTALTPEERLTQKVKMELEGFRRNQQFFNMLTYGNPRLHNDRVKQHIHQTRSTIICWHRDSLIQAYGETILPFVWDLVIILHGMMREFLMLIKIEEKPLELDPIAEFIISTLNQIIKNRETRQSLLPPEAIELYIHSASSYKPKDKSVLLSESLKELHKGISSLSAADYDVDELTSAAAMLEEEAKKEEPRAFLLKSLIGYLEQTGVLTQPVSMLKTLLIT | not soluble
14 | MSLGPVVHQTSSRFRRRSAQPTWDMSDGCADAIAFRVDSEGIKLHGFGIYLPTEPDRRNFVGEIMMLSPDSSEKWTCLLRVTAEMSSEEKEVGIVRFPEYVLLSPGVTYAVKVNMMKNTKTFCGEGGVTQVHLLNGARLFFSGCSMSQNGTTVQRGQLPYLIYSILDQSNSLQIKQEGHHHHHH | soluble
15 | MSLATYETFAAVYDAVMDDTLYAKWTDFSLRHFPKGKKKLLELACGTGIQSVRFAQAGYAVTGLDLSGDMLKLAKKRATSAHQSIQFIEGNMLDLSNVGKYDLITCYSDSICYMQDEVEVGDVFIEVYKALEENGVFIFDVHSTYQTDKVFPGYSYHENADDFAMVWDTYEDDAPHSIVHELTFFVQEEDGRFTRHDEVHEERTYDILTYDILLEQAGFKDVKVYADFEDKKPTATSARWFFVAHKEGHHHHHH | soluble
16 | AHHHHHHGSNTEKYLAKGLEDVYIDQTNICYIDGKEGKLYYRGYSVEELAELSTFEEVVYLLWWGKLPSLSELENFKKELAKSRGLPKEVIEIMEALPKNTHPMGALRTIISYLGNIDDSGDIPVTPEEVYRIGISVTAKIPTIVANWYRIKNGLEYVPPKEKLSHAANFLYMLHGEEPPKEWEKAMDVALILYAEHEINASTLAVMTVGSTLSDYYSAILAGIGALKGPIHGGAVEEAIKQFMEIGSPEKVEEWFFKALQQKRKIMGAGHRVYKTYDPRARIFKKYASKLGDKKLFEIAERLERLVEEYLSKKGISINVDYWSGLVFYGMKIPIELYTTIFAMGRIAGWTAHLAEYVSHNRIIRPRLQYVGEIGKKYLPIELRR | not soluble
17 | MGSDKIHHHHHHMVGIILASHGEFAEGILQSGAMIFGEQENVKAVTLMPSEGPDDVKAKMQEAIASFDNQDEVLFLVDLWGGTPFNQANSLLEDHKDKWAIVAGMNLPMVIEAYASRFSMESAQEIATHILETAKDGVKVKPEELQPAEAPKAAATEDAQPKGSLPPGTVVGDGKIKFVLARIDSRLLHGQVATAWTKATQPNRIIVVSDAVAKDDLRKKLIEQAAPPGVKANVIPISKMIEVAKDPRFGNTKALLLFENPEDVLKVVEGGVEIPEVNVGSMAHSVGKVVVSKVLSMGQEDVDTFDELKAKGIKFDVRKVPNDSKANMDEILKKAKNELANA | not soluble
18 | MSEPPKKPFACAICRNKSSGCHYGVLSCDACKMFFKRTYLMEKYYTCRRQESCYNMDGGNRKCKACRFKKCLEVGMNPELFSRSESQIISTNIPTQLITQDHRNAEFLQKLKILDKTRHEVFKIIDTYENPSFVDLVRQESRLSCYLRPKNISWENTERKLKPWGSLGMLLAVETIKSLDFYPKLLLSDRILLLETVTLKSFHLSVAFDSFSQKKEKILAPDGSEMFPDSLNKMDFCKDLIMRLLTTPVKPLIAMKLTETEYLLLGIIVICNPEIDGLSPSGKAIITAFLQKTINVLLQFCLINNPRSAPSRLLEIISINQILNRQFHASYKLFDALRKQWDPTMSFQKVLVESCKTRGYDLS | not soluble
19 | MAGDPMVTQNKKILIITGSFGNGHLQVTQSVVNQFKEMNLDNLTVIEHDLFLEAHPILTSICKKWYINSFKYFRNMYKAFYYSQPDQLDKCFYKYYGLNKLMNLLLKEKPDLILLTFPTPVMSVLTEQFDMNIPIATVMTDYRMQKNWITPFSQRYYLATEELKDEFASIGIPKDKLKVTGIPISDKFETDIDKTAWLSQNHLDPDKPTILMSAGAFGVSKGFGQMIQEILNRSPHAQVVMICGKNKDLKRSLTSQFKDFNNVLILGYTKHMNEWMASSQLMITKPGGITISEALTRQIPMIFLDPAPGQELENAVYFEEKGYGRIANTPEAAIEQVAALTNAPTKLASMSESMDASRIPYSTYKLCKDLLNLLNHSSHYEEVYGKVPLYAKLFVKLEHHHHHH | not soluble
